For eight sequences, Kd results are on record in the Immune Epitope Database (IEDB).

One may read the Kd as the free concentration of one partner at which half of the binding sites on the other are occupied at equilibrium, for simple one-to-one binding.

Some results are limits rather than exact numbers.

Assay [1] deals with HLA-B*15:09. The assay is described as follows: IEDB peptide-MHC binding, purified MHC/direct/fluorescence; filed as Kd, often an IC50 or EC50 that approximates it; ≥ and ≤ were set here for values at or beyond the usual limits of such assays.
In assay [2] the target is HLA-B*39:01. The description is as above.
The target of assay [3] is HLA-B*40:01. The assay is described as above.
For assay [4], the target named is HLA-B*58:01. The description is as above.
The target of assay [5] is HLA-B*57:01. The assay is described as above.
For assay [6], the target named is HLA-B*48:01. The description is as above.
Assay [7] has as its target HLA-A*31:01. The description is as above.
Assay [8] concerns the target HLA-A*69:01. The description is as above.
In assay [9] the target is HLA-B*15:01. The description is as above.
The target in assay [10] is HLA-B*15:17. Described as above. As to conditions: source organism: Camelpox virus CMS.
For assay [11], the target named is HLA-A*03:01. The description is as above.
For assay [12], the target named is HLA-B*46:01. The description is as above.
Assay [13] addresses HLA-A*01:01. Described as above.
Assay [14] has as its target HLA-B*27:05. Described as above.
Assay [15] concerns the target HLA-A*02:01. The assay is described as above.
The target of assay [16] is HLA-A*11:01. The assay is described as follows: IEDB peptide-MHC binding, purified MHC/competitive/fluorescence; filed as Kd, often an IC50 or EC50 that approximates it; ≥ and ≤ were set here for values at or beyond the usual limits of such assays.
Assay [17] concerns the target HLA-A*68:02. The assay is described as follows: IEDB peptide-MHC binding, purified MHC/direct/fluorescence; filed as Kd, often an IC50 or EC50 that approximates it; ≥ and ≤ were set here for values at or beyond the usual limits of such assays. The note with it: source organism: Marburg virus - Musoke, Kenya, 1980.
Assay [18] deals with HLA-B*07:02. Described as above.
The target in assay [19] is HLA-A*24:03. The description is as above.
Assay [20] addresses HLA-A*26:03. The description is as above.
The target of assay [21] is HLA-B*18:01. Described as above.
Assay [22] deals with HLA-A*11:01. The description is as above.
In assay [23] the target is HLA-A*26:02. The assay is described as follows: IEDB peptide-MHC binding, purified MHC/competitive/fluorescence; filed as Kd, often an IC50 or EC50 that approximates it; ≥ and ≤ were set here for values at or beyond the usual limits of such assays.
Assay [24] concerns the target HLA-A*02:06. The assay is described as above. As to conditions: source organism: Orthomarburgvirus marburgense.
Assay [25] has as its target HLA-A*31:01. The assay is described as above. As to conditions: source organism: Orthomarburgvirus marburgense.
The target in assay [26] is HLA-B*15:17. The assay is described as above.
For assay [27], the target named is HLA-B*08:02. Description: IEDB peptide-MHC binding, purified MHC/direct/fluorescence; filed as Kd, often an IC50 or EC50 that approximates it; ≥ and ≤ were set here for values at or beyond the usual limits of such assays. The note with it: source organism: Variola virus.
Assay [28] has as its target HLA-B*08:01. Described as above. As to conditions: source organism: Variola virus.
For assay [29], the target named is HLA-A*68:02. Description: IEDB peptide-MHC binding, purified MHC/competitive/fluorescence; filed as Kd, often an IC50 or EC50 that approximates it; ≥ and ≤ were set here for values at or beyond the usual limits of such assays. The note with it: source organism: Taterapox virus.
Assay [30] addresses HLA-B*18:01. Described as above. The note with it: source organism: Taterapox virus.
Assay [31] concerns the target HLA-A*29:02. The assay is described as follows: IEDB peptide-MHC binding, purified MHC/direct/fluorescence; filed as Kd, often an IC50 or EC50 that approximates it; ≥ and ≤ were set here for values at or beyond the usual limits of such assays. The note with it: source organism: Yellow fever virus.
In assay [32] the target is HLA-B*44:02. Described as above. As to conditions: source organism: Yellow fever virus.
Assay [33] concerns the target HLA-C*15:02. The description is as above.
The target of assay [34] is HLA-A*24:02. The assay is described as follows: IEDB peptide-MHC binding, purified MHC/competitive/fluorescence; filed as Kd, often an IC50 or EC50 that approximates it; ≥ and ≤ were set here for values at or beyond the usual limits of such assays. The note with it: source organism: Escherichia coli B7A.
The mark [35] stands for this setting: source organism: Camelpox virus CMS.
The mark [36] stands for this setting: source organism: Marburg virus - Musoke, Kenya, 1980.
The mark [37] stands for this setting: source organism: Ravn virus - Ravn, Kenya, 1987.
[38] abbreviates: source organism: Orthomarburgvirus marburgense.
[39] abbreviates: source organism: Camelpox virus M-96.
Where [40] appears, read: source organism: Taterapox virus.
Setting [41] is: source organism: Yellow fever virus.
The mark [42] stands for this setting: source organism: Giardia lamblia ATCC 50803.

As to VSEKYTDMY, the equilibrium dissociation constant (Kd) in assay [1] (source organism: Variola virus), in [2] (source organism: Variola virus), in assay [3] (setting [35]), in [4] (setting [35]), in assay [5] (setting [35]) and in assay [6] (setting [35]) was no less than 20 µM each time. The dissociation constant (Kd) is no less than 20 µM in assay [7] (setting [35]); no less than 20 µM in [8] (setting [35]); no less than 20 µM in assay [9] (setting [35]); 0.126 µM in [10]; no less than 20 µM in assay [11] (setting [35]); no less than 20 µM in [12] (setting [35]). Besides, the equilibrium dissociation constant (Kd) in [13] (setting [35]) is 0.0033 µM; in [14] (setting [35]) it was no less than 20 µM; in [15] (setting [35]), no less than 20 µM; in assay [16] (source organism: Vaccinia virus) it was no less than 20 µM.

With LFLSFCSLF, the dissociation constant Kd is no less than 20 µM in [17]; no less than 20 µM in assay [18] (setting [36]); no less than 20 µM in assay [1] (setting [37]); no less than 20 µM in [2] (setting [37]); 0.245 µM in assay [19] (setting [36]); no less than 20 µM in assay [20] (setting [37]). Besides, the dissociation constant Kd in [4] (setting [37]) was 1.38 µM; in assay [21] (setting [36]), no less than 20 µM; in assay [22] (setting [36]), no less than 20 µM; in assay [5] (setting [36]), no less than 20 µM; in assay [8] (setting [36]) it was no less than 20 µM; in assay [9] (setting [36]), no less than 20 µM. Also, the dissociation constant Kd in assay [13] (setting [36]), in [15] (setting [36]), in [23] (setting [38]), in assay [24], in assay [25] and in assay [26] (setting [38]) was no less than 20 µM each time.

Turning to SYVFNFHKY, the equilibrium dissociation constant (Kd) in assay [18] (setting [39]) was no less than 20 µM; in assay [27] it was no less than 20 µM; in assay [19] (setting [39]), 0.055 µM; in assay [4] (setting [39]), no less than 20 µM; in assay [5] (setting [39]) it was no less than 20 µM; in assay [7] (setting [39]), no less than 20 µM. For the same sequence, the Kd in [8] (setting [39]), in assay [9] (setting [39]), in assay [13] (setting [39]), in [15] (setting [39]), in assay [28] and in [29] was no less than 20 µM in each case. Besides, the dissociation constant Kd was 4.09 µM in assay [23] (setting [40]), no less than 20 µM in assay [30], 2.55 µM in assay [16] (setting [40]) and no less than 20 µM in [26] (setting [40]).

Sequence FTYAPAGMY displayed a dissociation constant Kd in assay [20] (source organism: Listeria monocytogenes serotype 4b str. H7858) of 0.114 µM.

As for FHERGYVKL, the equilibrium dissociation constant (Kd) is no less than 20 µM in [18] (setting [41]); 0.071 µM in assay [1] (setting [41]); no less than 20 µM in assay [3] (setting [41]); no less than 20 µM in assay [4] (setting [41]); no less than 20 µM in [21] (setting [41]); no less than 20 µM in assay [22] (setting [41]). The dissociation constant Kd in [5] (setting [41]), in [6] (setting [41]), in assay [7] (setting [41]), in assay [8] (setting [41]), in assay [31] and in assay [9] (setting [41]) was no less than 20 µM throughout. The Kd in assay [11] (setting [41]), in assay [12] (setting [41]), in assay [32], in [13] (setting [41]), in [14] (setting [41]) and in [15] (setting [41]) was no less than 20 µM throughout.

Take RAIREYFQF: the Kd in assay [4] (setting [42]) is 0.005 µM; in [5] (setting [42]), 0.0477 µM; in [33] (setting [42]), 2.13 µM.

For ITPTIYLLL, the Kd turned out to be 0.396 µM in [33] (source organism: Escherichia coli B7A) and 0.0007 µM in assay [34].

For the sequence VSTAIAALF, the Kd was 0.0284 µM in [4] (source organism: Mycobacterium tuberculosis) and 0.45 µM in [33] (source organism: Mycobacterium tuberculosis H37Ra).
